Experimental data reported in PMC12589655 (Nature Communications, 2025).

Biological target: the molecule itself
Experiment: SEC-SAXS

B1: CVS wt P3, recombinant (rabies virus CVS-11 phosphoprotein, residues 53-297) (natural protein)
chain: MKRLHLDDEKSSNLGEMVRVGEGKYREDFQMDEGEDPNLLFQSYLDNVGVQIVRQMRSGERFLKIWSQTVEEIVSYVTVNFPNPPRRSSEDKSTQTTGRELKKETTSAFSQRESQPSKARMVAQVAPGPPALEWSATNEEDDLSVEAEIAHQIAESFSKKYKFPSRSSGIFLYNFEQLKMNLDDIVKEAKNVPGVTRLAHDGSKIPLRCVLGWVALANSKKFQLLVEADKLSKIMQDDLNRYTSC
stoichiometry N: 2
